Sequences and labels used below:
B1: CD22-mAb-1 (antibody, V domains shown)
VH: QVQLVQSGAEVKKPGASVKVSCKASGYTFTGYYIHWVRQAPGQGLEWMGWINPNSGGTNYAQKFQGRVTMTRDTSIGTAYMELSRLRSDDTAIYYCTREDTWNYIDYWGQGTLVTVSS
VL: DIQMTQSPSSLSASVGDRVTITCRASQSISSHLNWYQQKPGKAPKLLIYAASSLHSGVPSRFSGSGSGTDFTLTISSLQPEDFATYCCQQSYSTPRTFGQGTKVEIK
B2: CD22-mAb-3 (antibody, V domains shown)
VH: QVTLRESGPALVKTTQTLTLTCTFSGFSLSTSGMCVSWIRQPPGKALEWLALIDWDDDKYYSTSLKTRLTISKDTSKSQVVLTMTSMDPVDTATYYCARIRYIYGYDYFDYWGQGTLVTVSS
VL: B1 VL with S28R, H32Q, H55Q, D70E, F83I, S91T, T94K, R96I, K103R, V104L
B3: CD22-mAb-2 (antibody, V domains shown)
VH: QVTLRESGPALVKPTQTLTLTCTFSGISLTTSGMCVSWIRQPPGKALEWLALIDWDGDNYYSTSLKTRLTISKDTSKNQVVLTMASMDPVDTATYYCARMGYTYGYDAFDIWGQGTMVTVSS
VL: EIVLTQSPEFQSVTPTEKVTITCRASQSIGSLLHWYQQKPDQSPKLLIKFASQSLSGVPSRFSGSGSGTDFTLTINSLEAEDAATYYCHQSRSLPFTFGPGTKVDIN
B4: CD22-mAb-4 (antibody, V domains shown)
VH: QVQLVESGGGVVQPGRSLRLSCAASGFTFSSYGMHWVRQAPGKGLEWVAIIYYDGSKKYYADSVKGRFTISRDNSKNTLYLQMNSLRAEDTAVYYCARELTGDAFDIWGQGTKVTVSS
VL: EIVLTQSPDFQSVTPKEKVTITCRASQSIGSSLHWYQQKPDQSPKLLIKYASQSFSGVPSKFIGSGSGTDFTLTINSLEAEDAATFYCHQSSTLPYTFGQGTKLEIK

Positions count from the first letter of the chain named.

human CD22, His-tagged recombinant, sequence (P20273 20-687): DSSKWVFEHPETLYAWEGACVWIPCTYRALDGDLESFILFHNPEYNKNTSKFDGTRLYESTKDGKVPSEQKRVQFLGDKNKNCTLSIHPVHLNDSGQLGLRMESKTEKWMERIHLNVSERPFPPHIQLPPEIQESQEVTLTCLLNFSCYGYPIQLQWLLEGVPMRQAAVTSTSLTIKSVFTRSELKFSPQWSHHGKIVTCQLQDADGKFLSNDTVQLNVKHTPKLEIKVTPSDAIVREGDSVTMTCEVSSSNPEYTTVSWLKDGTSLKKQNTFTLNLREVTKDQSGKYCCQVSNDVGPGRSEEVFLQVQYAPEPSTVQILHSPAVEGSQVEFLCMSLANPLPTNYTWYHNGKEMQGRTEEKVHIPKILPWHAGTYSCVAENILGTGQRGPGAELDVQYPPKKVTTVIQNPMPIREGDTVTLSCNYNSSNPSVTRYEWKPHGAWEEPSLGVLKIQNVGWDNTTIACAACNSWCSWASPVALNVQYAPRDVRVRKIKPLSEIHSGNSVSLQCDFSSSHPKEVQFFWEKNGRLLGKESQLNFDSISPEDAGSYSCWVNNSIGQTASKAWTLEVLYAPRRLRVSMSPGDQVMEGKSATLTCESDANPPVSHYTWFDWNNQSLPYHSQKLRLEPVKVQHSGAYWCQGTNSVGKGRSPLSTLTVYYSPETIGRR

This test concerns the target human CD22, His-tagged recombinant (human, UniProt P20273). In words: SPR. (In SPR one partner is held on a chip, and binding of the other changes the refractive index at the surface.)
Turning to B1, the Kd (in general, the concentration at which binding is half-saturated) was 0.0377 nM. The result for B2 reads 1.7 nM; that for B3, 0.358 nM; that for B4, 2.59 nM.

These data come from patent US20260374864 (published 2026).
